In patent publication US20090280473A1:

Key:
Experiment in all cases: cell-based or functional assay
[1] = biological target: Semliki Forest virus E1 fusion protein, low pH-induced trimeric form (full-length viral E1 of cell-b (Semliki Forest virus) (UniProt P03315))
[2] = biological target: Dengue virus 2 (DV2, strain New Guinea C) E fusion protein (Dengue virus 2) (UniProt P14340)
[3] = biological target: Dengue virus 1 (DV1, strain Western Pacific) E fusion protein (Dengue virus 1) (UniProt P17763)

DIII (SFV E1 domain III, Met + residues 291-383) (from UniProt P03315 1106-1198)
percent inhibition of SFV fusion in the FIA at ˜80 µM [1]: 60 % inhibition

DIIIS (SFV E1 domain III plus stem, Met + residues 291-412) (from UniProt P03315 1106-1227)
inhibition of SFV fusion with BHK cells, fusion-infection assay (FIA) [1]: 6 µM

DV2DIIIH1 (dengue virus 2 E domain III plus helix 1 of the stem, residues 296-415) (from UniProt P14340 576-695)
percent inhibition of DV2 fusion in the FIA at 50 µM [2]: 70 % inhibition | percent inhibition of DV1 fusion in the FIA at 50 µM [3]: 70 % inhibition
